Assay results as given in paper PMC9875831.
Read-outs that look alike come from different tables or passages of the source.

Tests used:
Assay in all cases: FRET or BRET
[1] = molecular target: A2AR-D2R heteromer (A2AR-Rluc with D2R-GFP2) (human) (UniProt P29274)
[2] = molecular target: A2AR-D2R heteromer (A2AR-Rluc with D2R-GFP2) (human) (UniProt P29274); remark: listed apart in the source
[3] = molecular target: A2AR-Rluc (adenosine A2A receptor fused to Renilla luciferase) (human) (UniProt P29274)
[4] = molecular target: D2R-Rluc (dopamine D2 receptor, long isoform, fused to Renilla luciferase) (human) (UniProt P14416)
UniProt P14416, sequence (P14416 whole entry, the tested form may be a part, canonical isoform): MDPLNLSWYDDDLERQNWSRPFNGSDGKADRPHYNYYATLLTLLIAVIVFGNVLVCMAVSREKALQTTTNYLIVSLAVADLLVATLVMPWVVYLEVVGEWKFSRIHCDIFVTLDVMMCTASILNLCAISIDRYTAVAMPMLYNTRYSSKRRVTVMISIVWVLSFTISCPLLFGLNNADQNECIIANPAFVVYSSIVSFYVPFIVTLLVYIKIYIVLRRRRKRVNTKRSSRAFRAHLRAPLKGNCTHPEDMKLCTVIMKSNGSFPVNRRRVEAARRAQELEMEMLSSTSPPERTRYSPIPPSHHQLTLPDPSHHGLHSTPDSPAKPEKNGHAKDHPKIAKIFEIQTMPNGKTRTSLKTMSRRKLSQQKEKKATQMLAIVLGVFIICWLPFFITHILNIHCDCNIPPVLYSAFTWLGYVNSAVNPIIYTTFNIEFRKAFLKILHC

Substance	SRET50 [1]	SRET50 [2]	BRET50 [3]	BRET50 [4]
NCS-1-YFP (neuronal calcium sensor 1 fused to yellow fluorescent protein) (from UniProt P62166 1-190) (natural protein)	24.1	8.9	42.4	23.4
calneuron-1-YFP (from UniProt Q9BXU9 1-261) (natural protein)	38.5	25.1	40.5	25.7
